Target: T1, SiOBP15, purified, His-tag removed (Solenopsis invicta)
T1 construct: the ORF cloned into pET28a; also called purified SiOBP15; SiOBP15 protein (ligand); source: E. coli BL21, purified (Ni-Sepharose Cl-6B agarose), His-tag removed by protease cleavage
Assay: SPR; open SPR; SiOBP15 coupled to a COOH chip until saturation, SiApoLp-III or SiFABP5 titrated as analyte; one-to-one model (TraceDrawer)
Conditions: both partners purified

B1: SiApoLp-III, purified, His-tag removed (natural protein)
chain: EQSGTQPQLSDYIRDAQTAISSLGTQIQEHLNLPNQEELANTFKEQSTNFANNVQAYLQNITDEVKAKSPELEDFWTNMKTKLSEAVDNLHINPETTEQVNQLRAKFQEGVQTLVTESENAAKTISENSGKVQESIAKITKQAIDIAVKASQNLNQQLQQATTPQP
Kd: 713 nM

Reference: paper PMC11813584, “An odorant-binding protein functions in fire ant social immunity interfacing with innate immunity” (Open Biology, 2025)
